Tests used:
[1] = biological target: cell surface receptor composed of the tyrosine kinase receptor FGFR1c and co-receptor beta-Klotho (KLB) (human, UniProt P11362 22-822; Q86Z14 1-1044); assay: cell-based or functional assay
[2] = biological target: cell surface receptor composed of FGFR1c and co-receptor beta-Klotho (KLB) (human, UniProt P11362 22-822; Q86Z14 1-1044); assay: cell-based or functional assay
human beta-Klotho (KLB) = biological target: T1, human beta-Klotho (KLB) (human, UniProt Q86Z14 53-997); assay: BLI off-rate screen, supernatant;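 also: expression supernatants tested at 25 µg/mL, dissociation followed for 1800 s in D-PBS with 0.1% BSA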
T1 construct: Bought soluble protein; also called human KLB; ß-Klotho
T1 sequence (looked up): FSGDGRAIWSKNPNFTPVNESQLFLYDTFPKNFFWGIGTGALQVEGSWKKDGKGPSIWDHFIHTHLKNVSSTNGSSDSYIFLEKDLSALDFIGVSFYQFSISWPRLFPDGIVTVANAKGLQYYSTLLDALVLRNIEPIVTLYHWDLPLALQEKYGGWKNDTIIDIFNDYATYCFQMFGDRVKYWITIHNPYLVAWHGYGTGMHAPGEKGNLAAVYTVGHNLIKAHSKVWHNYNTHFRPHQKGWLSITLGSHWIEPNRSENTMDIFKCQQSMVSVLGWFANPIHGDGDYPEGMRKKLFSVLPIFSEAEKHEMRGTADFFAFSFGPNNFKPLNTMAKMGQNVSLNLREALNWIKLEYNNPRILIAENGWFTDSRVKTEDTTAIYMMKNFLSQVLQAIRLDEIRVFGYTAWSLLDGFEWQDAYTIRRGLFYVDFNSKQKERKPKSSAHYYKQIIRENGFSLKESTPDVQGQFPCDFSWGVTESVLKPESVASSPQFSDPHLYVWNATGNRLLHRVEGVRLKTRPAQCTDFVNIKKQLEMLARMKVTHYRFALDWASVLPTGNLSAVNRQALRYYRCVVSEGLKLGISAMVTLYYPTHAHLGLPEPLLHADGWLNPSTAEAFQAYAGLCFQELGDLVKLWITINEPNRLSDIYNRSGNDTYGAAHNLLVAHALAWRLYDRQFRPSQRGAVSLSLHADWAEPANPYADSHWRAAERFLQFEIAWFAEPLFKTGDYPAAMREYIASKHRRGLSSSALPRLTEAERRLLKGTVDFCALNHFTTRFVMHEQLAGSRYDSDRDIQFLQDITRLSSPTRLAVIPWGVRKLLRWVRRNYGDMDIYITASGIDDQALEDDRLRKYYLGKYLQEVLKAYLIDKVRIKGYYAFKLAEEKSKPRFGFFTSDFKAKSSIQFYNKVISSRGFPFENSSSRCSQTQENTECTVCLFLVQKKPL
For Mean E max, Luciferase reporter gene assay in this document: reference of the scale not given here.

Sequence of cell surface receptor composed of the tyrosine kinase receptor FGFR1c and co-receptor beta-Klotho (KLB) (P11362 22-822, chain 1 of 2): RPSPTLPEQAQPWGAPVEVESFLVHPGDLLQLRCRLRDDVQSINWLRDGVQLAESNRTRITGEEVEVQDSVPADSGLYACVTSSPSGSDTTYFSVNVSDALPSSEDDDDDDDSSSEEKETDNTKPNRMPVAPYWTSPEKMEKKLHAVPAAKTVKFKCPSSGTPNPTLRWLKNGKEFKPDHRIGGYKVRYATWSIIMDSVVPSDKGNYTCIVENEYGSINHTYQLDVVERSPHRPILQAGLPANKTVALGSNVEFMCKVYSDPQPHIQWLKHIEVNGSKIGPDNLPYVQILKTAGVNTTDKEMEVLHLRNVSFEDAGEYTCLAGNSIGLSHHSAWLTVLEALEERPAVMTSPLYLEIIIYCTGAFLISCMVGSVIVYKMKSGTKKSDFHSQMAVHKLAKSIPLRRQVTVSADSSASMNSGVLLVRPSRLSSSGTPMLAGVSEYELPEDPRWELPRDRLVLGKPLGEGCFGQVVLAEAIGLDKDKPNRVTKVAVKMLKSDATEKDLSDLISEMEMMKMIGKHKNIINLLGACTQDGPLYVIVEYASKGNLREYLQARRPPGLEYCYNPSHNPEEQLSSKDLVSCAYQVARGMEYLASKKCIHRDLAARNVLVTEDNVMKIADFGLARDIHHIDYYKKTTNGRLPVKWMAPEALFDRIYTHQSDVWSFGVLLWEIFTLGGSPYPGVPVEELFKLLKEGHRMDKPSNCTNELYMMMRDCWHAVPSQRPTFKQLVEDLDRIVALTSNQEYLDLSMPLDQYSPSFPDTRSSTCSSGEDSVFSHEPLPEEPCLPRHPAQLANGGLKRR
Sequence of cell surface receptor composed of the tyrosine kinase receptor FGFR1c and co-receptor beta-Klotho (KLB) (Q86Z14 whole entry, chain 2 of 2): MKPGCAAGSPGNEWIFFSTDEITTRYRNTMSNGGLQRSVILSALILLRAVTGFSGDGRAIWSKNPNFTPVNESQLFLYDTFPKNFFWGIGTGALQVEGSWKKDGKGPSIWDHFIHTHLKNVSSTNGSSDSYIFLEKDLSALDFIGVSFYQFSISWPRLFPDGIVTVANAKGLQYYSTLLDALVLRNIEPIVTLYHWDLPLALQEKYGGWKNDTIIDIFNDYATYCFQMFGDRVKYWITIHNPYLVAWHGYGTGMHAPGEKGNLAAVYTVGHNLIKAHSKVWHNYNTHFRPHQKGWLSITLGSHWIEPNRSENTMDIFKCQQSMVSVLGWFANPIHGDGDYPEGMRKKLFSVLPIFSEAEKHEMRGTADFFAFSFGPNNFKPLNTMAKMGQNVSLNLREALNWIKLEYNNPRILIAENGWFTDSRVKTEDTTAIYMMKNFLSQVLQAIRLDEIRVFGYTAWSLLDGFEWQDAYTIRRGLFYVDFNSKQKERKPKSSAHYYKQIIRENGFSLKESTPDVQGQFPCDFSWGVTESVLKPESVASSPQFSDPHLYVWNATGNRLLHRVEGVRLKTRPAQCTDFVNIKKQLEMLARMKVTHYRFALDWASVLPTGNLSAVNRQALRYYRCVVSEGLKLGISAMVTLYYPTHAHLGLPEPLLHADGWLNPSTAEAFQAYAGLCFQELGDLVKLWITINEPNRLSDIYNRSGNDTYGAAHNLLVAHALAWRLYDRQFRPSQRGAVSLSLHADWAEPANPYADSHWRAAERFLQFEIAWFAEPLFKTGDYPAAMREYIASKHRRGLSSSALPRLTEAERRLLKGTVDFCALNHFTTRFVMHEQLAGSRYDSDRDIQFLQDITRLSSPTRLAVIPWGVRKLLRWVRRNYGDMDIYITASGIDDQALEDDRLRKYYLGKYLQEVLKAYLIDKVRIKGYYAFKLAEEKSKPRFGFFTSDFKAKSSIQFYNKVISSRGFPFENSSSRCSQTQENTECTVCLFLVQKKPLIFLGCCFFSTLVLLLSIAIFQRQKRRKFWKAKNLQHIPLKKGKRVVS
Sequence of cell surface receptor composed of FGFR1c and co-receptor beta-Klotho (KLB) (P11362 22-822, chain 1 of 2): as the sequence (P11362 22-822, chain 1 of 2) above
Sequence of cell surface receptor composed of FGFR1c and co-receptor beta-Klotho (KLB) (Q86Z14 whole entry, chain 2 of 2): as the sequence (Q86Z14 whole entry, chain 2 of 2) above

B1: 16H7 variant with light chain substitution D95S (antibody, human IgG4 S228P, lambda, V domains shown)
VH: not shown
VL: SYVLTQPPSVSVAPGQTARITCGGNNIGSESVHWYQQKPGQAPVLVVYDDSDRPSGIPERFSGSNSGNTATLTISRVEAGDEADYYCQVWDGNSSHVVFGGGTKLTVLG
Mean E max, Luciferase gene reporter assay [1]: 37%

B2: 16H7 light chain variant G28A (antibody, human IgG4 S228P, lambda, V domains shown)
VH: not shown
VL: SYVLTQPPSVSVAPGQTARITCGGNNIASESVHWYQQKPGQAPVLVVYDDSDRPSGIPERFSGSNSGNTATLTISRVEAGDEADYYCQVWDGNSDHVVFGGGTKLTVLG
Mean E max, Luciferase reporter gene assay [2]: 92%
Mean EC50, Luciferase reporter gene assay [2]: 0.123 nM
koff (human beta-Klotho (KLB)): 3.3e-05 s⁻¹

B3: 16H7 light chain variant E30S (antibody, human IgG4 S228P, lambda, V domains shown)
VH: not shown
VL: SYVLTQPPSVSVAPGQTARITCGGNNIGSSSVHWYQQKPGQAPVLVVYDDSDRPSGIPERFSGSNSGNTATLTISRVEAGDEADYYCQVWDGNSDHVVFGGGTKLTVLG
Mean E max, Luciferase reporter gene assay [2]: 114%
Mean EC50, Luciferase reporter gene assay [2]: 0.132 nM
koff (human beta-Klotho (KLB)): 1.6e-05 s⁻¹

B4: 16H7 light chain variant E30M (antibody, V domains shown)
VH: not shown
VL: SYVLTQPPSVSVAPGQTARITCGGNNIGSMSVHWYQQKPGQAPVLVVYDDSDRPSGIPERFSGSNSGNTATLTISRVEAGDEADYYCQVWDGNSDHVVFGGGTKLTVLG
notes: copies: 2 + 2
Mean E max, Luciferase reporter gene assay [2]: 100%
Mean EC50, Luciferase reporter gene assay [2]: 0.12 nM
koff (human beta-Klotho (KLB)): 3.8e-05 s⁻¹

B5: 16H7 light chain variant E30I (antibody, human IgG4 S228P, lambda, V domains shown)
VH: not shown
VL: SYVLTQPPSVSVAPGQTARITCGGNNIGSISVHWYQQKPGQAPVLVVYDDSDRPSGIPERFSGSNSGNTATLTISRVEAGDEADYYCQVWDGNSDHVVFGGGTKLTVLG
Mean E max, Luciferase reporter gene assay [2]: 108%
Mean EC50, Luciferase reporter gene assay [2]: 0.136 nM
koff (human beta-Klotho (KLB)): 7.3e-05 s⁻¹

B6: 16H7 light chain variant G28F (antibody, human IgG4 S228P, lambda, V domains shown)
VH: not shown
VL: SYVLTQPPSVSVAPGQTARITCGGNNIFSESVHWYQQKPGQAPVLVVYDDSDRPSGIPERFSGSNSGNTATLTISRVEAGDEADYYCQVWDGNSDHVVFGGGTKLTVLG
Mean E max, Luciferase reporter gene assay [2]: 102%
Mean EC50, Luciferase reporter gene assay [2]: 0.124 nM
koff (human beta-Klotho (KLB)): 3.9e-05 s⁻¹

B7: 16H7 variant with light chain substitution S94K (antibody, human IgG4 S228P, lambda, V domains shown)
VH: not shown
VL: SYVLTQPPSVSVAPGQTARITCGGNNIGSESVHWYQQKPGQAPVLVVYDDSDRPSGIPERFSGSNSGNTATLTISRVEAGDEADYYCQVWDGNKDHVVFGGGTKLTVLG
Mean E max, Luciferase gene reporter assay [1]: 104%
Mean EC50, Luciferase gene reporter assay [1]: 0.185 nM

B8: 16H7 light chain variant G28H (antibody, human IgG4 S228P, lambda, V domains shown)
VH: not shown
VL: SYVLTQPPSVSVAPGQTARITCGGNNIHSESVHWYQQKPGQAPVLVVYDDSDRPSGIPERFSGSNSGNTATLTISRVEAGDEADYYCQVWDGNSDHVVFGGGTKLTVLG
Mean E max, Luciferase reporter gene assay [2]: 108%
Mean EC50, Luciferase reporter gene assay [2]: 0.165 nM
koff (human beta-Klotho (KLB)): 1.8e-05 s⁻¹

B9: 16H7 light chain variant E30F (antibody, V domains shown)
VH: not shown
VL: SYVLTQPPSVSVAPGQTARITCGGNNIGSFSVHWYQQKPGQAPVLVVYDDSDRPSGIPERFSGSNSGNTATLTISRVEAGDEADYYCQVWDGNSDHVVFGGGTKLTVLG
notes: copies: 2 + 2
Mean E max, Luciferase reporter gene assay [2]: 92%
Mean EC50, Luciferase reporter gene assay [2]: 0.107 nM
koff (human beta-Klotho (KLB)): 9.7e-05 s⁻¹

B10: 16H7 light chain variant E30A (antibody, V domains shown)
VH: not shown
VL: SYVLTQPPSVSVAPGQTARITCGGNNIGSASVHWYQQKPGQAPVLVVYDDSDRPSGIPERFSGSNSGNTATLTISRVEAGDEADYYCQVWDGNSDHVVFGGGTKLTVLG
notes: copies: 2 + 2
Mean E max, Luciferase reporter gene assay [2]: 103%
Mean EC50, Luciferase reporter gene assay [2]: 0.146 nM
koff (human beta-Klotho (KLB)): 5.1e-05 s⁻¹

B11: 16H7 light chain variant E30N (antibody, V domains shown)
VH: not shown
VL: SYVLTQPPSVSVAPGQTARITCGGNNIGSNSVHWYQQKPGQAPVLVVYDDSDRPSGIPERFSGSNSGNTATLTISRVEAGDEADYYCQVWDGNSDHVVFGGGTKLTVLG
notes: copies: 2 + 2
Mean E max, Luciferase reporter gene assay [2]: 110%
Mean EC50, Luciferase reporter gene assay [2]: 0.163 nM
koff (human beta-Klotho (KLB)): 2.4e-05 s⁻¹

B12: 16H7 light chain variant E30D (antibody, human IgG4 S228P, lambda, V domains shown)
VH: not shown
VL: SYVLTQPPSVSVAPGQTARITCGGNNIGSDSVHWYQQKPGQAPVLVVYDDSDRPSGIPERFSGSNSGNTATLTISRVEAGDEADYYCQVWDGNSDHVVFGGGTKLTVLG
Mean E max, Luciferase reporter gene assay [2]: 96%
Mean EC50, Luciferase reporter gene assay [2]: 0.118 nM
koff (human beta-Klotho (KLB)): 3.6e-05 s⁻¹

B13: 16H7 light chain variant E30C (antibody, V domains shown)
VH: not shown
VL: SYVLTQPPSVSVAPGQTARITCGGNNIGSCSVHWYQQKPGQAPVLVVYDDSDRPSGIPERFSGSNSGNTATLTISRVEAGDEADYYCQVWDGNSDHVVFGGGTKLTVLG
notes: copies: 2 + 2
Mean E max, Luciferase reporter gene assay [2]: 92%
Mean EC50, Luciferase reporter gene assay [2]: 0.114 nM
koff (human beta-Klotho (KLB)): 9.6e-05 s⁻¹

B14: 16H7 light chain variant G28C (antibody, human IgG4 S228P, lambda, V domains shown)
VH: not shown
VL: SYVLTQPPSVSVAPGQTARITCGGNNICSESVHWYQQKPGQAPVLVVYDDSDRPSGIPERFSGSNSGNTATLTISRVEAGDEADYYCQVWDGNSDHVVFGGGTKLTVLG
Mean E max, Luciferase reporter gene assay [2]: 100%
Mean EC50, Luciferase reporter gene assay [2]: 0.103 nM
koff (human beta-Klotho (KLB)): 9.1e-06 s⁻¹

B15: 16H7 light chain variant E30Y (antibody, V domains shown)
VH: not shown
VL: SYVLTQPPSVSVAPGQTARITCGGNNIGSYSVHWYQQKPGQAPVLVVYDDSDRPSGIPERFSGSNSGNTATLTISRVEAGDEADYYCQVWDGNSDHVVFGGGTKLTVLG
notes: copies: 2 + 2
Mean E max, Luciferase reporter gene assay [2]: 107%
Mean EC50, Luciferase reporter gene assay [2]: 0.152 nM
koff (human beta-Klotho (KLB)): 7.6e-05 s⁻¹

B16: 16H7 light chain variant E30L (antibody, V domains shown)
VH: not shown
VL: SYVLTQPPSVSVAPGQTARITCGGNNIGSLSVHWYQQKPGQAPVLVVYDDSDRPSGIPERFSGSNSGNTATLTISRVEAGDEADYYCQVWDGNSDHVVFGGGTKLTVLG
notes: copies: 2 + 2
Mean E max, Luciferase reporter gene assay [2]: 96%
Mean EC50, Luciferase reporter gene assay [2]: 0.16 nM
koff (human beta-Klotho (KLB)): 6.9e-05 s⁻¹

B17: 16H7 light chain variant G28D (antibody, human IgG4 S228P, lambda, V domains shown)
VH: not shown
VL: SYVLTQPPSVSVAPGQTARITCGGNNIDSESVHWYQQKPGQAPVLVVYDDSDRPSGIPERFSGSNSGNTATLTISRVEAGDEADYYCQVWDGNSDHVVFGGGTKLTVLG
Mean E max, Luciferase reporter gene assay [2]: 107%
Mean EC50, Luciferase reporter gene assay [2]: 0.126 nM
koff (human beta-Klotho (KLB)): 4e-05 s⁻¹

B18: 16H7 light chain variant G28I (antibody, human IgG4 S228P, lambda, V domains shown)
VH: not shown
VL: SYVLTQPPSVSVAPGQTARITCGGNNIISESVHWYQQKPGQAPVLVVYDDSDRPSGIPERFSGSNSGNTATLTISRVEAGDEADYYCQVWDGNSDHVVFGGGTKLTVLG
Mean E max, Luciferase reporter gene assay [2]: 112%
Mean EC50, Luciferase reporter gene assay [2]: 0.132 nM
koff (human beta-Klotho (KLB)): 3.3e-05 s⁻¹

B19: 16H7 light chain variant E30R (antibody, V domains shown)
VH: not shown
VL: SYVLTQPPSVSVAPGQTARITCGGNNIGSRSVHWYQQKPGQAPVLVVYDDSDRPSGIPERFSGSNSGNTATLTISRVEAGDEADYYCQVWDGNSDHVVFGGGTKLTVLG
notes: copies: 2 + 2
Mean E max, Luciferase reporter gene assay [2]: 96%
Mean EC50, Luciferase reporter gene assay [2]: 0.162 nM
koff (human beta-Klotho (KLB)): 3.7e-05 s⁻¹

B20: 16H7 light chain variant G28E (antibody, human IgG4 S228P, lambda, V domains shown)
VH: not shown
VL: SYVLTQPPSVSVAPGQTARITCGGNNIESESVHWYQQKPGQAPVLVVYDDSDRPSGIPERFSGSNSGNTATLTISRVEAGDEADYYCQVWDGNSDHVVFGGGTKLTVLG
Mean E max, Luciferase reporter gene assay [2]: 105%
Mean EC50, Luciferase reporter gene assay [2]: 0.12 nM
koff (human beta-Klotho (KLB)): 1.8e-05 s⁻¹

B21: 16H7 light chain variant E30T (antibody, V domains shown)
VH: not shown
VL: SYVLTQPPSVSVAPGQTARITCGGNNIGSTSVHWYQQKPGQAPVLVVYDDSDRPSGIPERFSGSNSGNTATLTISRVEAGDEADYYCQVWDGNSDHVVFGGGTKLTVLG
notes: copies: 2 + 2
Mean E max, Luciferase reporter gene assay [2]: 100%
Mean EC50, Luciferase reporter gene assay [2]: 0.105 nM
koff (human beta-Klotho (KLB)): 4.9e-05 s⁻¹

B22: 16H7 light chain variant E30V (antibody, V domains shown)
VH: not shown
VL: SYVLTQPPSVSVAPGQTARITCGGNNIGSVSVHWYQQKPGQAPVLVVYDDSDRPSGIPERFSGSNSGNTATLTISRVEAGDEADYYCQVWDGNSDHVVFGGGTKLTVLG
notes: copies: 2 + 2
Mean E max, Luciferase reporter gene assay [2]: 108%
Mean EC50, Luciferase reporter gene assay [2]: 0.14 nM
koff (human beta-Klotho (KLB)): 4.1e-05 s⁻¹

B23: 16H7 light chain variant E30G (antibody, human IgG4 S228P, lambda, V domains shown)
VH: not shown
VL: SYVLTQPPSVSVAPGQTARITCGGNNIGSGSVHWYQQKPGQAPVLVVYDDSDRPSGIPERFSGSNSGNTATLTISRVEAGDEADYYCQVWDGNSDHVVFGGGTKLTVLG
Mean E max, Luciferase reporter gene assay [2]: 94%
Mean EC50, Luciferase reporter gene assay [2]: 0.138 nM
koff (human beta-Klotho (KLB)): 4.8e-05 s⁻¹

B24: 16H7 light chain variant E30Q (antibody, V domains shown)
VH: not shown
VL: SYVLTQPPSVSVAPGQTARITCGGNNIGSQSVHWYQQKPGQAPVLVVYDDSDRPSGIPERFSGSNSGNTATLTISRVEAGDEADYYCQVWDGNSDHVVFGGGTKLTVLG
notes: copies: 2 + 2
Mean E max, Luciferase reporter gene assay [2]: 99%
Mean EC50, Luciferase reporter gene assay [2]: 0.123 nM
koff (human beta-Klotho (KLB)): 1e-07 s⁻¹
